Target: peptide containing the APP12 polyproline motif and a N-terminal TAMRA label
Assay: fluorescence polarisation

Kd: < 2000 nM
Substance: naive fusion of bmTyr and Fyn-SH3 linked by a short glycine/serine linker (from UniProt P06241 84-141) (enzyme)
